Experimental data taken from PMC4898930.

Target: Myc-N1
Test: co-immunoprecipitation (IP with Myc antibody), quantification of western blot bands
Conditions: HEK293 cells, more than 3 independent experiments, read off a plot

response (relative intensity) (control (without HA-RhoC), parent: est. 1.0): 0.47
response (relative intensity) (with HA-RhoC co-expressed, parent: est. 1.7): 0.2
Substance: Fam65b-GFP (from UniProt Q80U16) RL/AA
